Assay results reported in patent publication US20040180399A1 (Pfizer, published 2004).

B1: IL-22BP-Ig (Fc fusion)
chain: TQSTHESLKPQRVQFQSRNFHNILQWQPGRALTGNSSVYFVQYKIYGQRQWKNKEDCWGTQELSCDLTSETSDIQEPYYGRVRAASAGSYSEWSMTPRFTPWWETKIDPPVMNITQVNGSLLVILHAPNLPYRYQKEKNVSIEDYYELLYRVFIINNSLEKEQKVYEGAHRAVEIEALTPHSSYCVVAEIYQPMLDRRSQRSEERCVEIP
notes: Used as supernatant of transiently transfected HEK293 cells; it may begin with Met or Met Met; also called IL-TIFR-Ig; IL-22BP fusion protein; not shown: hinge, CH2 and CH3 domains of murine IgG3 isotype heavy chain, amplified from IgG3 anti-TNP hybridoma C3110
B2: IL-22R-Ig (Fc fusion, UniProt Q8N6P7 16-228, looked up)
chain: HAPEDPSDLLQHVKFQSSNFENILTWDSGPEGTPDTVYSIEYKTYGERDWVAKKGCQRITRKSCNLTVETGNLTELYYARVTAVSAGGRSATKMTDRFSSLQHTTLKPPDVTCISKVRSIQMIVHPTPTPIRAGDGHRLTLEDIFHDLFYHLELQVNRTYQMHLGGKQREYEFFGLTPDTEFLGTIMICVPTWAKESAPYMCRVKTLPDRTWT
notes: Used as supernatant of transiently transfected HEK293 cells; also called fusion protein of IL-22R and the IgG3 Fc fragment; not shown: IgG3 Fc fragment, made 'in similar fashion' to the murine IgG3 hinge-CH2-CH3 of IL-TIFR-Ig
B3: recombinant human IL-TIF/IL-22 (ligand, UniProt Q9GZX6 34-179, looked up)
chain: APISSHCRLDKSNFQQPYITNRTFMLAKEASLADNNTDVRLIGEKLFHGVSMSERCYLMKQVLNFTLEEVLFPQSDRFQPYMQEVVPFLARLSNRLSTCHIEGDDLHIQRNVQKLKDTVKKLGESGEIKAIGELDLLFMSLRNACI

Key:
bovine serum albumin = target: T1, bovine serum albumin (bovine, UniProt P02769 25-607); test: ELISA, coated plate, HEK293 supernatant, anti-Ig peroxidase detection
T1 construct: Negative control coating in the ELISA; also called BSA
T1 sequence (P02769 25-607 limits assumed): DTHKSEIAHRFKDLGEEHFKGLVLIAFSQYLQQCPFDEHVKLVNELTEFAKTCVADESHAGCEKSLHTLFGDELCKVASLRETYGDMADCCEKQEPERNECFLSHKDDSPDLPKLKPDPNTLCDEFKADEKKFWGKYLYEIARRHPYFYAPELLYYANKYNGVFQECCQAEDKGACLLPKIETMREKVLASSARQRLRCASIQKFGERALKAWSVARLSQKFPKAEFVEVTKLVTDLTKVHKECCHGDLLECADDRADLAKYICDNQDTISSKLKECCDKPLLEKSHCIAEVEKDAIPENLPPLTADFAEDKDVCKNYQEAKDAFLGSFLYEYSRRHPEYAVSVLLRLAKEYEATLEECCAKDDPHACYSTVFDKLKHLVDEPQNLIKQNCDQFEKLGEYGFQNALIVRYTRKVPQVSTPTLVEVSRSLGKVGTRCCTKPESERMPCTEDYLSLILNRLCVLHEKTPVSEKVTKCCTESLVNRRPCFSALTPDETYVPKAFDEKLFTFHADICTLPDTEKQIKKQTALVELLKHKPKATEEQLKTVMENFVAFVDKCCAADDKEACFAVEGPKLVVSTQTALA
Protocol: (§1) Assays were then carried out by coating polystyrene plates with either 0.083 mg/ml of recombinant human IL-TIF/IL-22, or […] bovine serum albumin, in 20 mm Tris. Glycine buffer containing 30 mm NaCl, pH 9.2, overnight, at 4° C. Following washing in PBS buffer plus Tween 20 (10⁻⁴) plates were blocked with PBS plus 1% BSA for two hours, and then 50 μl of supernatant from transiently transfected HEK293 cells was added. Plates were then incubated for 2 hours, at 37° C. Any bound fusion protein was detected, using murine anti-Ig polyclonal antibodies coupled to peroxidase. Detection was carried out using the peroxidase substrate “TMB”, or (3,3′,5, 5′-tetramethylbenzidine), and stopped by 20 μl H₂S0_{4.}

IL-22BP-Ig = target: B1; test: ELISA, IL-TIF/IL-22 coated on plate, HEK293 supernatant, anti-Ig peroxidase detection
Protocol: as §1

binding result (bovine serum albumin) | binding result (IL-22BP-Ig) | Binder
no binding |  | B1
no binding |  | B2
 | binds | B3
